In the assay the target is human cytoskeletal actin, filamentous (F-actin; β- and γ-actins) (human, UniProt P60709 1-375; P63261 1-375). Nature of the assay: ITC. The settings on record: both partners purified.

B1: VopV_(rep1) (residues 361-428 of the type III secretion effector VopV) (domain or fragment)
chain: WPEVKPAHRLITTSGNAKIDGNPGYRNARVDVDGQTVGYTRNERGGSQPQSSGVHTLQGSQQPSVEPS
The molecule B1 had a dissociation constant (Kd) of 54.4 nM.

As a reminder, the Kd is the concentration at which binding is half-saturated.
